Source: publication PMC5327383, “Pneumococcal galactose catabolism is controlled by multiple regulators acting on pyruvate formate lyase” (Scientific Reports, 2017)
Where “and” joins values, the source holds several entries; their conditions need not be identical. Equal entries are not always repeated.

Assays:
Assay in all cases: EMSA
[1] = molecular target: T1, GlnR (Streptococcus pneumoniae D39) (UniProt A0A0H2ZRB1); conditions: 5X FY buffer: 20 mM Tris-HCl pH 7.5, 30 mM KCl, 1 mM DTT, 1 mM EDTA, 10% glycerol; room temperature 20 min, 20 ul, ~30 ng DNA, 0.1-0.5 uM protein; 8%
T1 sequence: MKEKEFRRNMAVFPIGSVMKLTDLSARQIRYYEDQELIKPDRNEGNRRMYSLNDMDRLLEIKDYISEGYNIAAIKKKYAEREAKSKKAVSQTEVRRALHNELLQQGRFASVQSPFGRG

[2] = molecular target: CcpA (Streptococcus pneumoniae D39) (UniProt A0A0H2ZQ65); conditions: 5X FY buffer: 20 mM Tris-HCl pH 7.5, 30 mM KCl, 1 mM DTT, 1 mM EDTA, 10% glycerol; room temperature 20 min, 20 ul, ~30 ng DNA, 0.1-0.5 uM protein; 8%
[3] = molecular target: T2, GntR (Streptococcus pneumoniae D39) (UniProt A0A0H2ZQS8); conditions: 5X FY buffer: 20 mM Tris-HCl pH 7.5, 30 mM KCl, 1 mM DTT, 1 mM EDTA, 10% glycerol; room temperature 20 min, 20 ul, ~30 ng DNA, 0.1-0.5 uM protein; 8%
T2 sequence: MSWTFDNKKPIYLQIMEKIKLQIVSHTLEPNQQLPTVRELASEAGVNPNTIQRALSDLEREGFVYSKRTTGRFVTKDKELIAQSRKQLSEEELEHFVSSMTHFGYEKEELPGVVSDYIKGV

[4] = test system: CcpA (Streptococcus pneumoniae D39); conditions: 5X FY buffer: 20 mM Tris-HCl pH 7.5, 30 mM KCl, 1 mM DTT, 1 mM EDTA, 10% glycerol, room temperature 20 min, 20 ul, ~30 ng DNA, 0.1-0.5 uM protein, 8%
[5] = test system: GlnR (Streptococcus pneumoniae D39); conditions: 5X FY buffer: 20 mM Tris-HCl pH 7.5, 30 mM KCl, 1 mM DTT, 1 mM EDTA, 10% glycerol, room temperature 20 min, 20 ul, ~30 ng DNA, 0.1-0.5 uM protein, 8%

Row | Substance | binding [1] | binding [2] | binding [3] | also measured
1 | AAGTGCAAAATCCCTATTTTTACACTTTCTTTTCTAAAACAGTCTATATTTTATTTCAAACTGTATTATATTTTTGAAAAAAATAAAGTCCTTTT (double strand) [PpflB(cre1-)] | no binding | no binding |  | 
2 | ATGACAGAAGAAATCAAAAATCTGCAGGCACAGGATTATGATGCCAGTCAAATTCAAGTTTTAGAGGGCTTAGAGGCTGTTCGTATGCGTCCAGG (double strand) [gyrB] | no binding | no binding |  | 
3 | CAGTTTGAAATAAAATATAGACTGTTTTAGAAAAGAAAGTGTAAAAATAGGGATTTTGCACTTGTTGAAATCGGTTACTTTATGGTATACTTGTC (double strand) [PpflB] |  |  | binds | Kd [1]: 310 nM; Kd [2]: 1270 nM and 350 nM
4 | GTGAAAATTTCGTTTTCATATTTCTACTTATTCCATTCTATCACTAATTGTAAACACTTTCAAGTGTTTTTTGAAGATTGATTGAAAAAATTTCA (double strand) [PccpA] | binds | binds | no binding | 
5 | GTTACCTTCCTTGAAAACGTTTTATAGTTTTATTATATCACGACTTGAAGGAAAAACAAGATTTTTGCCTATTTTTTAGAAAGCAATCTGTTTTTC (double strand) [PpflA] | binds | binds | no binding | 
6 | PpflB |  |  |  | Kd ([4]; 10 mM sodium formate): 350 nM; Kd ([4]; no formate): 1270 nM; Kd ([5]; 10 mM sodium formate): 790 nM; Kd ([5]; no formate): 310 nM
7 | TAATCTGATGATAGATTGAAAATGAAATTGAAAAACAGATTGCTTTCTAAAAAATAGGCAAAAATCTTGTTTTTCCTTCAAGTCGTGATATAATAA (double strand) [PpflA(cre1-)] | binds more weakly | binds more weakly |  | 
